Molecular target: His6-DIP1-c (Disconnected Interacting Protein 1, longest isoform) (Drosophila melanogaster)
Experiment: AUC

- stoichiometry N: 2
Substance: His6-DIP1-c (Disconnected Interacting Protein 1, longest isoform) (natural protein)
